Laboratory results: patent US20120034160A1 (AbbVie / Abbott, published 2012)
Changes are numbered by the printed parent chain.

B1: DVD1600 (bispecific antibody, human IgG1, kappa)
heavy: not shown
light: EIVLTQSPDFQSVTPKEKVTITCRASQDIGSELHWYQQKPDQPPKLLIKYASHSTSGVPSRFSGSGSGTDFTLTINGLEAEDAGTYYCHQTDSLPYTFGPGTKVDIKRTVAAPSVFIFPPDIQMTQSPSSLSASVGDRVTITCRASGNIHNYLTWYQQTPGKAPKLLIYNAKTLADGVPSRFSGSGSGTDYTFTISSLQPEDIATYYCQHFWSIPYTFGQGTKLQITRTVAAPSVFIFPPSDEQLKSGTASVVCLLNNFYPREAKVQWKVDNALQSGNSQESVTEQDSKDSTYSLSSTLTLSKADYEKHKVYACEVTHQGLSSPVTKSFNRGEC
B2: DVD1601 (bispecific antibody, human IgG1, kappa)
heavy: not shown
light: DIQMTQSPSSLSASVGDRVTITCRASGNIHNYLTWYQQTPGKAPKLLIYNAKTLADGVPSRFSGSGSGTDYTFTISSLQPEDIATYYCQHFWSIPYTFGQGTKLQITRTVAAPSVFIFPPEIVLTQSPDFQSVTPKEKVTITCRASQDIGSELHWYQQKPDQPPKLLIKYASHSTSGVPSRFSGSGSGTDFTLTINGLEAEDAGTYYCHQTDSLPYTFGPGTKVDIKRTVAAPSVFIFPPSDEQLKSGTASVVCLLNNFYPREAKVQWKVDNALQSGNSQESVTEQDSKDSTYSLSSTLTLSKADYEKHKVYACEVTHQGLSSPVTKSFNRGEC
B3: DVD1602 (bispecific antibody, human IgG1, kappa)
heavy: not shown
light: B1 light
B4: DVD1603 (bispecific antibody, human IgG1, kappa)
heavy: not shown
light: DTQVTQSPSSLSASVGDRVTITCITSTDIDVDMNWYQQKPGKPPKLLISQGNTLRPGVPSRFSSSGSGTDFTFTISSLQPEDFATYYCLQSDNLPLTFGQGTKLEIKRTVAAPSVFIFPPEIVLTQSPDFQSVTPKEKVTITCRASQDIGSELHWYQQKPDQPPKLLIKYASHSTSGVPSRFSGSGSGTDFTLTINGLEAEDAGTYYCHQTDSLPYTFGPGTKVDIKRTVAAPSVFIFPPSDEQLKSGTASVVCLLNNFYPREAKVQWKVDNALQSGNSQESVTEQDSKDSTYSLSSTLTLSKADYEKHKVYACEVTHQGLSSPVTKSFNRGEC
B5: DVD1604 (bispecific antibody, human IgG1, kappa)
heavy: not shown
light: EIVLTQSPDFQSVTPKEKVTITCRASQDIGSELHWYQQKPDQPPKLLIKYASHSTSGVPSRFSGSGSGTDFTLTINGLEAEDAGTYYCHQTDSLPYTFGPGTKVDIKRTVAAPSVFIFPPDTQVTQSPSSLSASVGDRVTITCITSTDIDVDMNWYQQKPGKPPKLLISQGNTLRPGVPSRFSSSGSGTDFTFTISSLQPEDFATYYCLQSDNLPLTFGQGTKLEIKRTVAAPSVFIFPPSDEQLKSGTASVVCLLNNFYPREAKVQWKVDNALQSGNSQESVTEQDSKDSTYSLSSTLTLSKADYEKHKVYACEVTHQGLSSPVTKSFNRGEC
B6: DVD1605 (bispecific antibody, human IgG1, kappa)
heavy: not shown
light: DTVVTQSPAFLSVTPGEKVTITCITSTDIDVDMNWYQQKPDQPPKLLISQGNTLRPGVPSRFSSSGSGTDFTFTISSLEAEDAATYYCLQSDNLPLTFGQGTKLEIKRTVAAPSVFIFPPEIVLTQSPDFQSVTPKEKVTITCRASQDIGSELHWYQQKPDQPPKLLIKYASHSTSGVPSRFSGSGSGTDFTLTINGLEAEDAGTYYCHQTDSLPYTFGPGTKVDIKRTVAAPSVFIFPPSDEQLKSGTASVVCLLNNFYPREAKVQWKVDNALQSGNSQESVTEQDSKDSTYSLSSTLTLSKADYEKHKVYACEVTHQGLSSPVTKSFNRGEC
B7: DVD1606 (bispecific antibody, human IgG1, kappa)
heavy: not shown
light: EIVLTQSPDFQSVTPKEKVTITCRASQDIGSELHWYQQKPDQPPKLLIKYASHSTSGVPSRFSGSGSGTDFTLTINGLEAEDAGTYYCHQTDSLPYTFGPGTKVDIKRTVAAPSVFIFPPDTVVTQSPAFLSVTPGEKVTITCITSTDIDVDMNWYQQKPDQPPKLLISQGNTLRPGVPSRFSSSGSGTDFTFTISSLEAEDAATYYCLQSDNLPLTFGQGTKLEIKRTVAAPSVFIFPPSDEQLKSGTASVVCLLNNFYPREAKVQWKVDNALQSGNSQESVTEQDSKDSTYSLSSTLTLSKADYEKHKVYACEVTHQGLSSPVTKSFNRGEC
B8: DVD1607 (bispecific antibody, human IgG1, kappa)
heavy: not shown
light: B4 light with D1E, Q3T
B9: DVD1608 (bispecific antibody, human IgG1, kappa)
heavy: not shown
light: B5 light with D121E, Q123T
B10: DVD1609 (bispecific antibody, human IgG1, kappa)
heavy: not shown
light: B2 light with D148N, P163S, T175I, G204A, T211S, S213T, Y216H, P220Q
B11: DVD1610 (bispecific antibody, human IgG1, kappa)
heavy: not shown
light: B1 light with D28N, P43S, T55I, G84A, T91S, S93T, Y96H, P100Q
B12: DVD1611 (bispecific antibody, human IgG1, kappa)
heavy: not shown
light: B2 light with D148N, P163S, T175I, G204A, T211S, S213T, Y216H, P220Q
B13: DVD1612 (bispecific antibody, human IgG1, kappa)
heavy: not shown
light: B1 light with D28N, P43S, T55I, G84A, T91S, S93T, Y96H, P100Q
B14: DVD1613 (bispecific antibody, human IgG1, kappa)
heavy: not shown
light: B4 light with D148N, P163S, T175I, G204A, T211S, S213T, Y216H, P220Q

molecular target: T1, Recombinant Human IL-17 (human, UniProt Q16552 20-155, limits assumed); assay: cell-based or functional assay
T1 sequence (looked up): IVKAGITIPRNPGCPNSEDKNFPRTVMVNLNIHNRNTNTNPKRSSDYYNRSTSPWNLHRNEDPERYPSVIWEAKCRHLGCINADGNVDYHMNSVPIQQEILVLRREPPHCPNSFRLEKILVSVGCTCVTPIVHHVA

Binder | N-terminal VD IL-17 Neutralization Assay EC50 [pM] | C-terminal VD IL-17 Neutralization Assay EC50 [pM]
B1 | 5.5 | –
B2 | – | 26.4
B3 | 3.3 | –
B4 | – | 40.7
B5 | 3.1 | –
B6 | – | 8.2
B7 | 18.8 | –
B8 | – | 3.1
B9 | 8.2 | –
B10 | – | 173
B11 | 4.6 | –
B12 | – | 300
B13 | 23.8 | –
B14 | – | 101

molecular target: Recombinant Human IL-1β (human, UniProt P01584 117-269); assay: cell-based or functional assay

Binder | C-Terminal VD IL-1β Neutralization Assay EC50 [pM] | N-Terminal VD IL-1β Neutralization Assay EC50 [pM]
B1 | 794 | –
B2 | – | 3.6
B3 | 133 | –
B4 | – | 80.3
B5 | 2030 | –
B6 | – | 242
B7 | 1630 | –
B8 | – | 455
B9 | 4250 | –
B10 | – | 3.8
B11 | 1000 | –
B12 | – | 4.1
B13 | 153 | –
B14 | – | 246
